Test results reported in the supplement of paper PMC11246515.
± gives the standard deviation of the averaged measurements.

Experiment: total protein half-life in vivo (active degradation + dilution); higher = more stable protein
[1] = E. coli NCM3722 delta-clpP delta-lon delta-hslV, growth: N-lim chemostat, doubling time 6 h
[2] = E. coli NCM3722 delta-clpP, growth: N-lim chemostat, doubling time 6 h
[3] = E. coli NCM3722 delta-hslV, growth: N-lim chemostat, doubling time 6 h
[4] = E. coli NCM3722 delta-lon, growth: N-lim chemostat, doubling time 6 h
[5] = E. coli NCM3722 delta-smpB, growth: N-lim chemostat, doubling time 6 h
[6] = wild type E. coli NCM3722, growth: C-lim chemostat, doubling time 3 h
[7] = wild type E. coli NCM3722, growth: C-lim chemostat, doubling time 6 h
[8] = wild type E. coli NCM3722, growth: C-lim chemostat, doubling time 12 h
[9] = wild type E. coli NCM3722, growth: N-lim chemostat, doubling time 6 h
[10] = wild type E. coli NCM3722, growth: N-lim chemostat, doubling time 12 h
[11] = wild type E. coli NCM3722, growth: P-lim chemostat, doubling time 6 h
[12] = wild type E. coli NCM3722, growth: P-lim chemostat, doubling time 12 h

Sequence	total protein half-life in vivo [1]	total protein half-life in vivo [2]	total protein half-life in vivo [3]	total protein half-life in vivo [4]	total protein half-life in vivo [5]	total protein half-life in vivo [6]	total protein half-life in vivo [7]	total protein half-life in vivo [8]	total protein half-life in vivo [9]	total protein half-life in vivo [10]	total protein half-life in vivo [11]	total protein half-life in vivo [12]
MNLEKINELTAQDMAGVNAAILEQLNSDVQLINQLGYYIVSGGGKRIRPMIAVLAARAVGYEGNAHVTIAALIEFIHTATLLHDDVVDESDMRRGKATANAAFGNAASVLVGDFIYTRAFQMMTSLGSLKVLEVMSEAVNVIAEGEVLQLMNVNDPDITEENYMRVIYSKTARLFEAAAQCSGILAGCTPEEEKGLQDYGRYLGTAFQLIDDLLDYNADGEQLGKNVGDDLNEGKPTLPLLHAMHHGTPEQAQMIRTAIEQGNGRHLLEPVLEAMNACGSLEWTRQRAEEEADKAIAALQVLPDTPWREALIGLAHIAVQRDR [P0AD57]	4.19 ± 0.56 h	4.1 ± 0.06 h	3.69 ± 0.19 h	5.2 ± 0.3 h	4.09 ± 0.18 h	3.02 ± 0.1 h	5.42 ± 0.15 h	9.86 ± 0.44 h	3.93 ± 0.17 h	6.372 ± 0.062 h	5.64 ± 0.61 h	11.4 ± 0.24 h
MNLKLQLKILSFLQFCLWGSWLTTLGSYMFVTLKFDGASIGAVYSSLGIAAVFMPALLGIVADKWLSAKWVYAICHTIGAITLFMAAQVTTPEAMFLVILINSFAYMPTLGLINTISYYRLQNAGMDIVTDFPPIRIWGTIGFIMAMWVVSLSGFELSHMQLYIGAALSAILVLFTLTLPHIPVAKQQANQSWTTLLGLDAFALFKNKRMAIFFIFSMLLGAELQITNMFGNTFLHSFDKDPMFASSFIVQHASIIMSISQISETLFILTIPFFLSRYGIKNVMMISIVAWILRFALFAYGDPTPFGTVLLVLSMIVYGCAFDFFNISGSVFVEKEVSPAIRASAQGMFLMMTNGFGCILGGIVSGKVVEMYTQNGITDWQTVWLIFAGYSVVLAFAFMAMFKYKHVRVPTGTQTVSH [P0AFF4]			> 8 h			1.79 h	6.63 h	10.8 ± 2.5 h		4.5 h		
MNLLTVSTDLISIFLFTTLFLFFARKVAKKVGLVDKPNFRKRHQGLIPLVGGISVYAGICFTFGIVDYYIPHASLYLACAGVLVFIGALDDRFDISVKIRATIQAAVGIVMMVFGKLYLSSLGYIFGSWEMVLGPFGYFLTLFAVWAAINAFNMVDGIDGLLGGLSCVSFAAIGMILWFDGQTSLAIWCFAMIAAILPYIMLNLGILGRRYKVFMGDAGSTLIGFTVIWILLETTQGKTHPISPVTALWIIAIPLMDMVAIMYRRLRKGMSPFSPDRQHIHHLIMRAGFTSRQAFVLITLAAALLASIGVLAEYSHFVPEWVMLVLFLLAFFLYGYCIKRAWKVARFIKRVKRRLRRNRGGSPNLTK [P0AC78]		6.35 h	5.89 ± 0.39 h	5.27 ± 0.83 h	5.8 ± 0.18 h	3.68 ± 0.28 h	5.75 h	11.8 ± 2.3 h	6.03 h	10.4 h	6.33 ± 0.36 h	
MNLQRFDDSTLIRIFALHELHRLKEHGLTRGALLDYHSRYKLVFLAHSQPEYRKLGPFVADIHQWQNLDDYYNQYRQRVVVLLSHPANPRDHTNVLMHVQGYFRPHIDSTERQQLAALIDSYRRGEQPLLAPLMRIKHYMALYPDAWLSGQRYFELWPRVINLRHSGVL	5.09 ± 0.47 h	4.66 ± 0.34 h	4.914 ± 0.015 h	5.47 ± 0.14 h	4.55 ± 0.27 h		5.12 h	11.2 h	4.54 ± 0.59 h	7.5 ± 0.48 h	5.11 ± 0.081 h	12 ± 0.13 h
MNLTLKESLVTRSRVFSPWTAFYFLQSLLINLGLGYPFSLLYTAAFTAILLLLWRTLPRVQKVLVGVSSLVAACYFPFAQAYGAPNFNTLLALHSTNMEESTEILTIFPWYSYLVGLFIFALGVIAIRRKKENEKARWNTFDSLCLVFSVATFFVAPVQNLAWGGVFKLKDTGYPVFRFAKDVIVNNNEVIEEQERMAKLSGMKDTWTVTAVKPKYQTYVVVIGESARRDALGAFGGHWDNTPFASSVNGLIFADYIAASGSTQKSLGLTLNRVVDGKPQFQDNFVTLANRAGFQTWWFSNQGQIGEYDTAIASIAKRADEVYFLKEGNFEADKNTKDEALLDMTAQVLAQEHSQPQLIVLHLMGSHPQACDRTQGKYETFVQSKETSCYLYTMTQTDDLLRKLYDQLRNSGSSFSLVYFSDHGLAFKERGKDVQYLAHDDKYQQNFQVPFMVISSDDKAHRVIKARRSANDFLGFFSQWTGIKAKEINIKYPFISEKKAGPIYITNFQLQKVDYNHLGTDIFDPKP	4.78 ± 0.78 h	4.97 ± 0.21 h	5.49 ± 1.6 h	5.01 h	3.31 ± 0.29 h	2.94 ± 0.12 h		10.2 ± 1.1 h	4.59 ± 0.6 h	10.2 h		8.42 h
MNNDNTDYVSNESGTLSRLFKLPQHGTTVRTELIAGMTTFLTMVYIVFVNPQILGAAQMDPKVVFVTTCLIAGIGSIAMGIFANLPVALAPAMGLNAFFAFVVVGAMGISWQTGMGAIFWGAVGLFLLTLFRIRYWMISNIPLSLRIGITSGIGLFIALMGLKNTGVIVANKDTLVMIGDLSSHGVLLGILGFFIITVLSSRHFHAAVLVSIVVTSCCGLFFGDVHFSGVYSIPPDISGVIGEVDLSGALTLELAGIIFSFMLINLFDSSGTLIGVTDKAGLIDGNGKFPNMNKALYVDSVSSVAGAFIGTSSVTAYIESTSGVAVGGRTGLTAVVVGVMFLLVMFFSPLVAIVPPYATAGALIFVGVLMTSSLARVNWDDFTESVPAFITTVMMPFTFSITEGIALGFMSYCIMKVCTGRWRDLNLCVVVVAALFALKIILVD						3.27 h	5.84 h					
MNNDVFPNKFKAALAAKQVQIGCWSALSNPISTEVLGLAGFDWLVLDGEHAPNDISTFIPQLMALKGSASAPVVRVPTNEPVIIKRLLDIGFYNFLIPFVETKEEAELAVASTRYPPEGIRGVSVSHRANMFGTVADYFAQSNKNITILVQIESQQGVDNVDAIAATEGVDGIFVGPSDLAAALGHLGNASHPDVQKAIQHIFNRASAHGKPSGILAPVEADARRYLEWGATFVAVGSDLGVFRSATQKLADTFKK	4.58 ± 0.62 h	4.02 ± 1.4 h	2.99 ± 0.14 h	3.19 h	3.51 ± 0.42 h	3.2103 ± 7.8e-05 h	5.123 ± 0.023 h	9.79 ± 0.92 h	3.355 ± 0.022 h	7.58 h		11.6 ± 0.72 h
MNNIQIRNYQPGDFQQLCAIFIRAVTMTASQHYSPQQISAWAQIDESRWKEKLAKSQVWVAIINAQPVGFISRIEHYIDMLFVDPEYTRRGVASALLKPLIKSESELTVDASITAKPFFERYGFQTVKQQRVECRGAWFTNFYMRYKPQH	4.81 h	3.71 ± 0.28 h	3.82 h		2.9 h		> 8 h		> 8 h			9.48 ± 0.24 h
MNNIQLAHGSGGQAMQQLINSLFMEAFANPWLAEQEDQARLDLAQLVAEGDRLAFSTDSYVIDPLFFPGGNIGKLAICGTANDVAVSGAIPRYLSCGFILEEGLPMETLKAVVTSMAETARAAGIAIVTGDTKVVQRGAVDKLFINTAGMGAIPANIHWGAQTLTAGDVLLVSGTLGDHGATILNLREQLGLDGELVSDCAVLTPLIQTLRDIPGVKALRDATRGGVNAVVHEFAAACGCGIELSEAALPVKPAVRGVCELLGLDALNFANEGKLVIAVERNAAEQVLAALHSHPLGKDAALIGEVVERKGVRLAGLYGVKRTLDLPHAEPLPRIC	3.91 ± 0.43 h	3.16 ± 0.4 h	3.27 ± 0.042 h	3.76 ± 0.14 h	3.59 ± 0.38 h	2.96 ± 0.3 h		9.14 ± 0.81 h	3.28 ± 0.28 h	4.8 ± 0.18 h	4.98 ± 0.13 h	9.482 ± 0.012 h
